Experimental findings from paper PMC8346688 (Redox Biology, 2021) are described below.

The data set “native gel or EMSA” deals with the molecule itself. Briefly: native gel or EMSA. A general note: A gel shift assay detects complexes by their altered migration in electrophoresis.
Data set [1] concerns the molecule itself. As to the kind of experiment: non-reducing SDS-PAGE with western blot. On the technique in general: In western blotting, separated proteins are transferred to a membrane and probed.

B1: BirA*-Flag-Prdx2 (natural protein, UniProt P32119 1-198, looked up)
chain: MASGNARIGKPAPDFKATAVVDGAFKEVKLSDYKGKYVVLFFYPLDFTFVCPTEIIAFSNRAEDFRKLGCEVLGVSVDSQFTHLAWINTPRKEGGLGPLNIPLLADVTRRLSEDYGVLKTDEGIAYRGLFIIDGKGVLRQITVNDLPVGRSVDEALRLVQAFQYTDEHGEVCPAGWKPGSDTIKPNVDDSKEYFSKHN
On to B1, for which the “stoichiometry N” value worked out at 10 in “native gel or EMSA” and 2 in data set [1].

B2: His-Prdx2 (natural protein, UniProt P32119 1-198, looked up)
chain: B1 chain
For the protein B2, the “stoichiometry N” value in “native gel or EMSA” was determined as 10; in data set [1], 2.

The stoichiometry N is the number of molecules, sites or subunits per partner or assembly.
